One molecule from patent US20150335719A1, “Intravitreal Injection of a Chimeric Phage Endolysin Ply187; Protection from Staphylococcus aureus Endophthalmitis” (priority 2014, published 2015) can be followed below.

For series [1], the system named is S. aureus R 2932 (CA-MRSA). Briefly: MIC against S. aureus strains (Table 1). Type of series: cell-based, Staphylococcus aureus. The note with it: mean of three experiments ± SEM. The procedure: (§1) For in vivo studies, an antibiotic sensitive S. aureus (SA) strain RN6390 was used to induce endophthalmitis; whereas, the in vitro studies were performed using antibiotic-resistant strains (Table 1), including USA300, a community-associated methicillin resistant S. aureus (CA-MRSA), and three clinical isolates R2932 (CA-MRSA), R2952 and R3000 (both being hospital-associated MRSA, […]), […]) kindly provided by Dr. Michael J. Rybak (Department of Pharmaceutical Sciences, Wayne State University, Detroit, Mich.). All bacteria were routinely cultured in TSB broth (Tryptic Soy broth, Sigma, St Louis, Mo.) or on TSB agar plates.
(§2) To verify and quantify the lytic activity against live S. aureus, we have tested Ply187AN-KSH3b in the Turbidity Reduction Assay. The turbidity assay measures the drop in optical density (OD) resulting from lysis of the target bacteria with the phage endolysin-derived protein. Turbidity reduction assays by chimeric Ply187AN-KSH3b were performed in a 96 well plate as described previously by Becker et al. (2009a, 2009b, supra). Briefly, S. aureus strains/isolates RN6390, USA 300, and clinical isolates R2932, R2952 and R3000 were grown to logarithmic phase (OD600 0.4-0.6) at 37° C. in tryptic Soy broth (TSB). The culture was harvested by centrifugation and the pellet was resuspended in assay buffer (400 mM NaCl, 20 mM Tris HCl, 1% glycerol, pH 7.5). Bacterial cultures (100 μl/well) were mixed with 100 μl of (as per MIC) of chimeric Ply187AN-KSH3b protein diluted in the same assay buffer. The reduction in the turbidity was measured after every 5 min up to 1 h using a micro plate reader. EB diluted in the same assay buffer (without chimeric Ply187AN-KSH3b protein) was used as a control (EB C). Resistance development against chimeric Ply187AN-KSH3b was tested using repeated exposure in an MIC assay as described by Rodriguez-Rubio and co-workers (Rodriguez-Rubio et al., PLoS One 8:e64671.). In brief, bacterial cultures (10^5 CFU/well) were exposed overnight to a 2-fold serial dilution of chimeric Ply187AN-KSH3b, lysostaphin, and gentamicin, where the latter serve as controls. In every round, 100 μl culture from the wells with growth (½ MIC value) were inoculated into fresh TSB and grown up to logarithmic phase. These cultures were used for the next round of MIC exposure. Bacteria surviving after 10 rounds were grown for an additional 5 rounds in TSB without any selection pressure to allow phenotype-reversion, then MIC were performed to measure the sensitivity to the chimeric Ply187AN-KSH3b after non-selective growth.

The subject of series [2] is S. aureus R 2952 (HA-MRSA). Briefly: MIC against S. aureus strains (Table 1). Type of series: cell-based, Staphylococcus aureus. The settings on record: mean of three experiments ± SEM. How it is done:
as §1, §2

In series [3] the test system is S. aureus R 3000 (HA-MRSA). Put plainly: MIC against S. aureus strains (Table 1). The settings on record: mean of three experiments ± SEM. Type of series: cell-based, Staphylococcus aureus. How it is done:
as §1, §2

Another series relates to S. aureus RN6390 (MSSA). Put plainly: MIC against S. aureus strains (Table 1). Type of series: cell-based, Staphylococcus aureus. The settings on record: mean of three experiments ± SEM. How it is done: as §1, §2
Series [4] has as its system S. aureus USA 300 (CA-MRSA). Briefly: MIC against S. aureus strains (Table 1). Type of series: cell-based, Staphylococcus aureus. The note with it: mean of three experiments ± SEM. How it is done: as §1, §2
Series [5] concerns S. aureus RN6390 endophthalmitis. Put plainly: Mouse S. aureus endophthalmitis: clinical score and slit lamp microscopy. Type of series: in vivo, C57BL/6 mice. The settings on record: for mean clinical score: scored after 24 h, scale 0 to 4. The procedure:
FIGS. 3A-3E show the effects of intravitreal injection of chimeric Ply187AN-KSH3b on the severity of S. aureus endophthalmitis. The eyes (n=10) of C57BL/6 mice were infected with S. aureus strain RN6390 and following either 6 h or 12 h post-infection, Ply187AN-KSH3b or EB (EB C) was administered by intravitreal injection. FIG. 3A depicts individual eyes assigned clinical scores (range 0 to 4; black dots represent an eye) and presented as mean clinical scores (bar with SEM). […] FIG. 3E depicts the total number of dead cells in the retinal sections that were counted and are presented as mean±SD of the TUNEL positive cells. A student's t test (**, p<0.005) was used for the statistical analysis and comparisons were made between the S. aureus (SA) control, SA+EBC, and SA+Ply187AN-KSH3b-treated group.
The eyes of C57BL/6 mice (female, 8 week old) were intravitreally injected with 1 μl of PBS containing 5000 colony forming units (CFU) of S. aureus RN6390 to induce endophthalmitis as described previously (Kumar et al., supra). The chimeric Ply187AN-KSH3b (1 μg/μl) treatment in EB was given after 6 h (group I) or 12 h (group II) post infection. In the control group, the eyes were treated with EB (EB C). The eye infected with S. aureus without any treatment was used as a disease control. Clinical examinations were performed using slit lamp microscopy. The ocular disease was graded, and clinical scores from 0 to 4.0 were assigned using the previously described scale (Whiston et al., supra; Ramadan et al. 2006. Curr. Eye Res. 31:955-965). The clinical score of 4 is considered as 100 percent damage. Based on this, the percent damage and percent retention of eyes were calculated in both Ply187AN-KSH3b-treated vs untreated S. aureus infected eyes. Mice were treated in compliance with the ARVO Statement for the Use of Animals in Ophthalmic and Vision Research and all procedures were approved by the Institutional Animal Care and Use Committee (IACUC) of Wayne State University.
We hypothesized that similar to antibiotics, chimeric Ply187AN-KSH3b would have beneficial effects in protecting the eyes from endophthalmitis. To test this hypothesis, we used a C57BL/6 mouse model of S. aureus endophthalmitis. Chimeric Ply187AN-KSH3b was administrated intravitreally (1 μg/eye in 1 μl volume of EB) 6 h and 12 h after bacterial infection. Eyes without any treatment or eyes injected with EB served as controls. After 24 h, each infected eye was assigned a clinical score.

B1: Ply187AN-KSH3b: staphylococcal peptidoglycan hydrolase fusion protein: endopeptidase domain of prophage endolysin Ply187 plus SH3b cell wall-binding domain of phage K endolysin LysK (SEQ ID NO:1) (protein)
chain: MALPKTGKPTAKQVVDWAINLIGSGVDVDGYYGRQCWDLPNYIFNRYWNFKTPGNARDMAWYRYPEGFKVFRNTSDFVPKPGDIAVWTGGNYNWNTWGHTGIVVGPSTKSYFYSVDQNWNNSNSYVGSPAAKIKHSYFGVTHFVRPAYKAEPKPTPPLESTPATRPVTGSWKKNQYGTWYKPENATFVNGNQPIVTRIGSPFLNAPVGGNLPAGATIVYDEVCIQAGHIWIGYNAYNGNRVYCPVRTCQGVPPNQIPGVAWGVFKVEHHHHHH
modifications: Chemically Synthesized Fusion Protein
One may read the MIC as the smallest concentration in the dilution series that meets the test's criterion for growth inhibition. With B1, the MIC was found to be 4.16 ± 1.04 µg/mL in series [1]; 8.33 ± 2.08 µg/mL in series [2]; 4.16 ± 1.04 µg/mL in series [3]; 4.16 ± 1.04 µg/mL against S. aureus RN6390 (MSSA); 4.16 ± 1.04 µg/mL in series [4]. Moreover, in series [5] (1 μg/eye intravitreal), the “slit lamp microscopy appearance of eyes” value is recorded as “clear/transparent corneas and/or anterior chambers”. Besides, the mean clinical score was determined as 0.2 in series [5] (treatment 6 h post infection, 1 μg/eye intravitreal) and 0.3 in series [5] (treatment 12 h post infection, 1 μg/eye intravitreal). Besides, in series [5] (treatment group, clinical score 4 = 100 percent damage), the “retention of eyes (conversion of clinical scores)” value is reported as 90-95%.
